# Assay results as given in IntAct's records for PubMed 25910212.
# B1: Krev interaction trapped protein 1 (Homo sapiens), O00522 (parent)
# chain: MGNPENIEDAYVAVIRPKNTASLNSREYRAKSYEILLHEVPIEGQKKKRKKVLLETKLQGNSEITQGILDYVVETTKPISPANQGIRGKRVVLMKKFPLDGEKMGREASLFIVPSVVKDNTKYTYTPGCPIFYCLQDIMRVCSESSTHFATLTARMLIALDKWLDERHAQSHFIPALFRPSPLERIKTNVINPAYATESGQTENSLHMGYSALEIKSKMLALEKADTCIYNPLFGSDLQYTNRVDKVVINPYFGLGAPDYSKIQIPKQEKWQRSMSSVTEDKERQWVDDFPLHRSACEGDSELLSRLLSERFSVNQLDSDHWAPIHYACWYGKVEATRILLEKGKCNPNLLNGQLSSPLHFAAGGGHAEIVQILLNHPETDRHITDQQGRSPLNICEENKQNNWEEAAKLLKEAINKPYEKVRIYRMDGSYRSVELKHGNNTTVQQIMEGMRLSQETQQYFTIWICSENLSLQLKPYHKPLQHVRDWPEILAELTNLDPQRETPQLFLRRDVRLPLEVEKQIEDPLAILILFDEARYNLLKGFYTAPDAKLITLASLLLQIVYGNYESKKHKQGFLNEENLKSIVPVTKLKSKAPHWTNRILHEYKNLSTSEGVSKEMHHLQRMFLQNCWEIPTYGAAFFTGQIFTKASPSNHKVIPVYVGVNIKGLHLLNMETKALLISLKYGCFMWQLGDTDTCFQIHSMENKMSFIVHTKQAGLVVKLLMKLNGQLMPTERNS
# partner: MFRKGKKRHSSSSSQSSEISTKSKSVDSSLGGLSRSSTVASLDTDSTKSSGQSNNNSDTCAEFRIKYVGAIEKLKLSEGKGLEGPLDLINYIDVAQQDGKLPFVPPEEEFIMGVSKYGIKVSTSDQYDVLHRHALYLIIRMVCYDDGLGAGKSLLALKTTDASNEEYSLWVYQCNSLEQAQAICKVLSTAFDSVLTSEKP
# B2: Glutathione S-transferase A2 (Homo sapiens), P09210 (parent)
# chain: MAEKPKLHYSNIRGRMESIRWLLAAAGVEFEEKFIKSAEDLDKLRNDGYLMFQQVPMVEIDGMKLVQTRAILNYIASKYNLYGKDIKEKALIDMYIEGIADLGEMILLLPFSQPEEQDAKLALIQEKTKNRYFPAFEKVLKSHGQDYLVGNKLSRADIHLVELLYYVEELDSSLISSFPLLKALKTRISNLPTVKKFLQPGSPRKPPMDEKSLEESRKIFRF
# partner: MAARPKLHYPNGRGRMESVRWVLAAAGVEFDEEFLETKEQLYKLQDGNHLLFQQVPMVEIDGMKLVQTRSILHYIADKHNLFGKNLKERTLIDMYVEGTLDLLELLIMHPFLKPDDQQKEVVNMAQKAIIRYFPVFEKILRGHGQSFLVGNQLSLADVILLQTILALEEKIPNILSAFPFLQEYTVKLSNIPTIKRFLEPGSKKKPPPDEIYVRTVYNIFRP
# B3: DNA ligase 4 (Homo sapiens), P49917 (parent)
# chain: MAASQTSQTVASHVPFADLCSTLERIQKSKGRAEKIRHFREFLDSWRKFHDALHKNHKDVTDSFYPAMRLILPQLERERMAYGIKETMLAKLYIELLNLPRDGKDALKLLNYRTPTGTHGDAGDFAMIAYFVLKPRCLQKGSLTIQQVNDLLDSIASNNSAKRKDLIKKSLLQLITQSSALEQKWLIRMIIKDLKLGVSQQTIFSVFHNDAAELHNVTTDLEKVCRQLHDPSVGLSDISITLFSAFKPMLAAIADIEHIEKDMKHQSFYIETKLDGERMQMHKDGDVYKYFSRNGYNYTDQFGASPTEGSLTPFIHNAFKADIQICILDGEMMAYNPNTQTFMQKGTKFDIKRMVEDSDLQTCYCVFDVLMVNNKKLGHETLRKRYEILSSIFTPIPGRIEIVQKTQAHTKNEVIDALNEAIDKREEGIMVKQPLSIYKPDKRGEGWLKIKPEYVSGLMDELDILIVGGYWGKGSRGGMMSHFLCAVAEKPPPGEKPSVFHTLSRVGSGCTMKELYDLGLKLAKYWKPFHRKAPPSSILCGTEKPEVYIEPCNSVIVQIKAAEIVPSDMYKTGCTLRFPRIEKIRDDKEWHECMTLDDLEQLRGKASGKLASKHLYIGGDDEPQEKKRKAAPKMKKVIGIIEHLKAPNLTNVNKISNIFEDVEFCVMSGTDSQPKPDLENRIAEFGGYIVQNPGPDTYCVIAGSENIRVKNIILSNKHDVVKPAWLLECFKTKSFVPWQPRFMIHMCPSTKEHFAREYDCYGDSYFIDTDLNQLKEVFSGIKNSNEQTPEEMASLIADLEYRYSWDCSPLSMFRRHTVYLDSYAVINDLSTKNEGTRLAIKALELRFHGAKVVSCLAEGVSHVIIGEDHSRVADFKAFRRTFKRKFKILKESWVTDSIDKCELQEENQYLI
# B4: Phakinin (Homo sapiens), Q13515 (parent)
# chain: MSERRVVVDLPTSASSSMPLQRRRASFRGPRSSSSLESPPASRTNAMSGLVRAPGVYVGTAPSGCIGGLGARVTRRALGISSVFLQGLRSSGLATVPAPGLERDHGAVEDLGGCLVEYMAKVHALEQVSQELETQLRMHLESKATRSGNWGALRASWASSCQQVGEAVLENARLMLQTETIQAGADDFKERYENEQPFRKAAEEEINSLYKVIDEANLTKMDLESQIESLKEELGSLSRNYEEDVKLLHKQLAGCELEQMDAPIGTGLDDILETIRIQWERDVEKNRVEAGALLQAKQQAEVAHMSQTQEEKLAAALRVELHNTSCQVQSLQAETESLRALKRGLENTLHDAKHWHDMELQNLGAVVGRLEAELREIRAEAEQQQQERAHLLARKCQLQKDVASYHALLDREESG
# partner: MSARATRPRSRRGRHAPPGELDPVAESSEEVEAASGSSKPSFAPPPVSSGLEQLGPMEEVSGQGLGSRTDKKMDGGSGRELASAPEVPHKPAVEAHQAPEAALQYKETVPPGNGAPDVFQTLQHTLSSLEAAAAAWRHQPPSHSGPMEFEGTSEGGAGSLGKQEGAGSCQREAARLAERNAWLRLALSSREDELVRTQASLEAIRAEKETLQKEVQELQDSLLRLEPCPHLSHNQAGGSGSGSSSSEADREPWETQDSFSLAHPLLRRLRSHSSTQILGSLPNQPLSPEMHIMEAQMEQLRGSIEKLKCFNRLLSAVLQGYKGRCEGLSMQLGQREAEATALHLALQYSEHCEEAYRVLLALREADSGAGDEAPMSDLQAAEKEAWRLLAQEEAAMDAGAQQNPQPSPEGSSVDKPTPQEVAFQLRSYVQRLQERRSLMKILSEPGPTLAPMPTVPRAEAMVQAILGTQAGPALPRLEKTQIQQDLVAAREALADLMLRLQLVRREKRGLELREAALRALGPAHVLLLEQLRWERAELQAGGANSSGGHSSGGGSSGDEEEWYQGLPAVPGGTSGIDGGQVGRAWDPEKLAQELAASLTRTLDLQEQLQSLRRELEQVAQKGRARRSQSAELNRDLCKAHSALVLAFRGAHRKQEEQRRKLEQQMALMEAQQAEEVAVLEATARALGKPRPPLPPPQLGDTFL
# B5: U4/U6 small nuclear ribonucleoprotein Prp3 (Homo sapiens), O43395 (parent)
# chain: MALSKRELDELKPWIEKTVKRVLGFSEPTVVTAALNCVGKGMDKKKAADHLKPFLDDSTLRFVDKLFEAVEEGRSSRHSKSSSDRSRKRELKEVFGDDSEISKESSGVKKRRIPRFEEVEEEPEVIPGPPSESPGMLTKLQIKQMMEAATRQIEERKKQLSFISPPTPQPKTPSSSQPERLPIGNTIQPSQAATFMNDAIEKARKAAELQARIQAQLALKPGLIGNANMVGLANLHAMGIAPPKVELKDQTKPTPLILDEQGRTVDATGKEIELTHRMPTLKANIRAVKREQFKQQLKEKPSEDMESNTFFDPRVSIAPSQRQRRTFKFHDKGKFEKIAQRLRTKAQLEKLQAEISQAARKTGIHTSTRLALIAPKKELKEGDIPEIEWWDSYIIPNGFDLTEENPKREDYFGITNLVEHPAQLNPPVDNDTPVTLGVYLTKKEQKKLRRQTRREAQKELQEKVRLGLMPPPEPKVRISNLMRVLGTEAVQDPTKVEAHVRAQMAKRQKAHEEANAARKLTAEQRKVKKIKKLKEDISQGVHISVYRVRNLSNPAKKFKIEANAGQLYLTGVVVLHKDVNVVVVEGGPKAQKKFKRLMLHRIKWDEQTSNTKGDDDEESDEEAVKKTNKCVLVWEGTAKDRSFGEMKFKQCPTENMAREHFKKHGAEHYWDLALSESVLESTD
# partner: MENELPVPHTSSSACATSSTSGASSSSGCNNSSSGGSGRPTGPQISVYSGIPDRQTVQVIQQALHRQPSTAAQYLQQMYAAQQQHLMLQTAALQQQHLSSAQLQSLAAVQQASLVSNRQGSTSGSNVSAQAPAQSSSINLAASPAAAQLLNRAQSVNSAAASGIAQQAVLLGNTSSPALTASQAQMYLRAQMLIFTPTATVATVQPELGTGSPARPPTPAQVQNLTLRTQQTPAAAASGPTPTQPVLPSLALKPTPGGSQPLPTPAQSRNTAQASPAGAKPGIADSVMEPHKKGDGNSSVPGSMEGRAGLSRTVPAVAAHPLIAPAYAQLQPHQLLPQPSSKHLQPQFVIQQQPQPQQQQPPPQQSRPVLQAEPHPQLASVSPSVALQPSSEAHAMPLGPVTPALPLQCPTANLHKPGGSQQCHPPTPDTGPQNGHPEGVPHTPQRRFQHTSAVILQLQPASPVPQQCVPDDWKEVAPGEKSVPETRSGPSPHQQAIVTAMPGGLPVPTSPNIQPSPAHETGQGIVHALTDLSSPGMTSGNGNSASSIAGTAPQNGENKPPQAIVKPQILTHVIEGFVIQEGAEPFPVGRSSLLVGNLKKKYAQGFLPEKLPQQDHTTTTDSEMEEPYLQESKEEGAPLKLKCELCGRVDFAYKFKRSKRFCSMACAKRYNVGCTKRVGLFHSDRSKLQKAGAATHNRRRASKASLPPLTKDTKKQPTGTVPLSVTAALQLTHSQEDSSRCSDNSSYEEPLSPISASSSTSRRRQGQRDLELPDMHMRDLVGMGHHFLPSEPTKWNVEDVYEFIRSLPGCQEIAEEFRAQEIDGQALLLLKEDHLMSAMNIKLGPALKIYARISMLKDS
# Variants of: B1
# Conditions: with itbp1_human ITGB1BP1, O14713
row,Variant,effect of a mutation on the interaction
1,D137G,with no effect

# Variants of: B2
# Conditions: with gsta4_human GSTA4, O15217
row,Variant,effect of a mutation on the interaction
1,P110S,with no effect

# Variants of: B3
# Conditions: with xrcc4_human XRCC4, Q13426
# Chain of xrcc4_human XRCC4, Q13426 (Q13426 whole entry): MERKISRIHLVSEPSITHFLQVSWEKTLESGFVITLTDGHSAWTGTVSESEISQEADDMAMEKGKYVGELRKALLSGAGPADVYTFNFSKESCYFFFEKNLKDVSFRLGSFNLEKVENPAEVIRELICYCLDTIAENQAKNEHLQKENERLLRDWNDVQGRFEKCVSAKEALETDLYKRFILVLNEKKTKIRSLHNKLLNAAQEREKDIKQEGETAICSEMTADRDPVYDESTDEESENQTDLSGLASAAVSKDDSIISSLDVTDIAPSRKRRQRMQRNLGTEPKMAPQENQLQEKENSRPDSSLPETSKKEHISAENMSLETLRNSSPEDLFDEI
row,Variant,effect of a mutation on the interaction
1,T9I,with no effect
2,A857T,with no effect
3,A3V,disrupting interaction strength

# Variants of: B4
# Conditions: with usbp1_human USHBP1, Q8N6Y0
row,Variant,effect of a mutation on the interaction
1,A407D,with no effect
2,R339H,with no effect

# Variants of: B5
# Conditions: with PHC2, Q8IXK0-5
row,Variant,effect of a mutation on the interaction
1,A489D,disrupting interaction strength
2,P493S,disrupting interaction strength
3,T494M,disrupting interaction strength
